Data taken from PMC6770826, “HDX and Native Mass Spectrometry Reveals the Different Structural Basis for Interaction of the Staphylococcal Pathogenicity Island Repressor Stl with Dimeric and Trimeric Phage dUTPases” (Biomolecules, 2019).

B1: φNM1 phage dUTPase (enzyme)
chain: TNTLTIDQLQELLQIQKEFDDRIPTLNLRDSKIAYVVEFFEWFNTLETFKNWKKKPGKPLDVQLDELADMLAFGLSIANQVGVSSEEIKEAIESSFKDTEFHKMFNFKDKEFAQDAVVSTPQIIFKEFYPDQQAIVIVIDIAYNLYSIDQLIDAYKKKMKRNHERQDGTADAGKGYV
notes: dUTPase of Staphylococcus aureus phage φNM1, Uniprot ID A0EWK2, residues 2-178; monomer mass 20976 Da printed; also called DUTφNM1; homodimeric φNM1 dUTPase; source: E. coli BL21 Rosetta (DE3), purified (glutathione-agarose, on-column thrombin cleavage); not shown: GST, N-terminal, cleaved

Assays:
[1] = target: φNM1 phage dUTPase (Staphylococcus aureus phage φNM1) (UniProt A0EWK2); test: native MS; electrospray QTOF, positive ion mode; proteins at 40 μM in 5 mM NH4HCO3 pH 8.0
[2] = target: φNM1 phage dUTPase (Staphylococcus aureus phage φNM1) (UniProt A0EWK2)
[3] = target: φNM1 phage dUTPase (Staphylococcus aureus phage φNM1) (UniProt A0EWK2); test: enzyme inhibition (steady-state dUTPase activity); DUTφNM1 with Stl at 0-300 nM, pre-incubated 5 min; 293 K; 1 mM HEPES-HCl pH 7.5, 5 mM MgCl2, 150 mM KCl, phenol red; quadratic binding equation fitted; apparent
[4] = target: φNM1 phage dUTPase (Staphylococcus aureus phage φNM1) (UniProt A0EWK2); test: cross-linking; disuccinimidyl suberate (DSS, 20 mM), 20 °C, 1 h; 20 μM each protein alone or 1:1 mixture (40 μM total); SDS-PAGE
[5] = target: Stl repressor protein of S. aureus pathogenicity island SaPIbov1 (Staphylococcus aureus (pathogenicity island SaPIbov1)); test: as above
[6] = target: the molecule itself; test: as above

| Molecule | stoichiometry N (Stl per DUTφNM1) [1] | maximal inhibition of the steady-state dUTPase activity of DUTφNM1 by Stl (0-300 nM) [2] [%] | Ki [3] [nM] | stoichiometry N (Stl per DUTφNM1) [4] | stoichiometry N [5] | stoichiometry N [6] |
| --- | --- | --- | --- | --- | --- | --- |
| Stl repressor protein of S. aureus pathogenicity island SaPIbov1 (natural protein) | 1 | 40 | 34 | 1 | 2 |  |
| B1 |  |  |  |  |  | 2 |
